Consider one substance from publication PMC3820160.

The experiment has as its target HA/Flag-tagged Met66 prodomain (human). The experiment in a line: co-IP.

Chain of HA/Flag-tagged Met66 prodomain (human) (P23560 19-247): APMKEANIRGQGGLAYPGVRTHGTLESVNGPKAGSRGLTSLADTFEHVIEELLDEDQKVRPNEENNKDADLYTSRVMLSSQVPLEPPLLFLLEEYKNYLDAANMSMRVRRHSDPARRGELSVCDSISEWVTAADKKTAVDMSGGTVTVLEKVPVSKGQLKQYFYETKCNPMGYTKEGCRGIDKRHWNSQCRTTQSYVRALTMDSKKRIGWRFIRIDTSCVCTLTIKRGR

Regarding “Myc-tagged SorCS2 (from UniProt Q96PQ0 51-1159) (receptor)”, the percent more co-immunoprecipitated than with the Val66 prodomain is 23%.
